The source of these data is article PMC3526295.

The target of this series is T1, Mre11-W243R (Homo sapiens, UniProt P49959 1-708, W243R).
T1 sequence: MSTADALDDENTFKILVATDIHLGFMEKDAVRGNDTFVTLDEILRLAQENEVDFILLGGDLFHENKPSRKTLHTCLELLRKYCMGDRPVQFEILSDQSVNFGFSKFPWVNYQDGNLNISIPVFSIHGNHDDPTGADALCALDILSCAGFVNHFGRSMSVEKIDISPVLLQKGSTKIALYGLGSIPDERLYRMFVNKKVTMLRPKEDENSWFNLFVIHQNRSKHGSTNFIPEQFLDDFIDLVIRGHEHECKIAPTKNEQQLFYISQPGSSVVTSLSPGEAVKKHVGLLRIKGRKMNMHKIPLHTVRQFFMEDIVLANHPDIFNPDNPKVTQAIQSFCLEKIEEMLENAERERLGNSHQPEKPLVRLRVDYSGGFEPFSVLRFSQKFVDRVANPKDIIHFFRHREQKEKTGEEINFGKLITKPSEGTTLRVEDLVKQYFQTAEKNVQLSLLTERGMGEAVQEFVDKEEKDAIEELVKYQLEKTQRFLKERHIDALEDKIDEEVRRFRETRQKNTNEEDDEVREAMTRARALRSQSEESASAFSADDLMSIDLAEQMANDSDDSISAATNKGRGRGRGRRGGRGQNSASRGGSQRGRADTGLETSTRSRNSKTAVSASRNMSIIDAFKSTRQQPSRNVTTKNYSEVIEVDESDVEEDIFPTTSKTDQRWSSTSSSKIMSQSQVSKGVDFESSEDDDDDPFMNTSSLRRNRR
Put plainly: EMSA. A general note: A gel shift assay detects complexes by their altered migration in electrophoresis.

B1: ssDNA90 (ssDNA)
DNA: AATTCTCATTTTACTTACCGGACGCTATTAGCAGTGGCAGATTGTACTGAGAGTGCACCATATGCGGTGTGAAATACCGCACAGATGCGT
Take B1: the binding result is “binds”.

B2: dsDNA90 (dsDNA)
DNA 1: B1 DNA
DNA 2: ACGCATCTGTGCGGTATTTCACACCGCATATGGTGCACTCTCAGTACAATCTGCCACTGCTAATAGCGTCCGGTAAGTAAAATGAGAATT
With B2, the binding result was “binds”.
